Assay results from patent EP4491631A1.

Legend:
[1] = molecular target: IL-2R on murine splenocytes (mouse) (UniProt P16297); assay: cell-based or functional assay
[2] = molecular target: CD122/CD132 complex (His-tagged, Acro Biosystem ILG-H5283) (UniProt P14784); assay: SPR, CD122/CD132 captured on NTA chip
Sequence of CD122/CD132 complex (His-tagged, Acro Biosystem ILG-H5283) (P14784 27-239 limits assumed, chain 1 of 2): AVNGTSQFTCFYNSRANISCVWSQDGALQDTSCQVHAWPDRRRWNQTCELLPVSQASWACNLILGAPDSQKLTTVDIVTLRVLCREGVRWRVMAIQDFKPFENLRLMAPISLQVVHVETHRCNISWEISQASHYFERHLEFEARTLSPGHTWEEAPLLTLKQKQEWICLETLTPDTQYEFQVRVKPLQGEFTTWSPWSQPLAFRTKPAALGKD
Sequence of CD122/CD132 complex (His-tagged, Acro Biosystem ILG-H5283) (P31785 23-262 limits assumed, chain 2 of 2, further chain): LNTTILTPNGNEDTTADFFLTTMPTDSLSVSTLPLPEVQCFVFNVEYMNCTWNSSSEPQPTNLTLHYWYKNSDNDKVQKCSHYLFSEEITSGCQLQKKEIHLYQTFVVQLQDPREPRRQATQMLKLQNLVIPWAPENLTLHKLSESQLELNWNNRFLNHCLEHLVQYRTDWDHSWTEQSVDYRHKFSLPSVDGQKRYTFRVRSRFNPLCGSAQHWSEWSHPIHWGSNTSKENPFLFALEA

Sequence of IL-2R on murine splenocytes (mouse) (P16297 27-539, chain 1 of 2): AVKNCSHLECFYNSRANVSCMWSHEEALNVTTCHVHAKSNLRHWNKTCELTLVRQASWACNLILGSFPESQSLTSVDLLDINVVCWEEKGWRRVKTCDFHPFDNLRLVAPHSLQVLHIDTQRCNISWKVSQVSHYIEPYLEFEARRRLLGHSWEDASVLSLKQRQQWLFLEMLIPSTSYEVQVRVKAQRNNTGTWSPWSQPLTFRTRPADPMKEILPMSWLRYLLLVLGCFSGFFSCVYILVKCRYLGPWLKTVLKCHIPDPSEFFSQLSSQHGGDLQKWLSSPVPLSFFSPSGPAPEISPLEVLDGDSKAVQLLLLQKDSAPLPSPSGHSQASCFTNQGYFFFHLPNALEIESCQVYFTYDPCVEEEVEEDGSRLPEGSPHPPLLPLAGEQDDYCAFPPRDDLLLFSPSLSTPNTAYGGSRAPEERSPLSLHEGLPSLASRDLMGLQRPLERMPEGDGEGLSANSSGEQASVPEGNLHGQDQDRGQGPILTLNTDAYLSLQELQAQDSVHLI
Sequence of IL-2R on murine splenocytes (mouse) (P34902 23-369, chain 2 of 2, further chain): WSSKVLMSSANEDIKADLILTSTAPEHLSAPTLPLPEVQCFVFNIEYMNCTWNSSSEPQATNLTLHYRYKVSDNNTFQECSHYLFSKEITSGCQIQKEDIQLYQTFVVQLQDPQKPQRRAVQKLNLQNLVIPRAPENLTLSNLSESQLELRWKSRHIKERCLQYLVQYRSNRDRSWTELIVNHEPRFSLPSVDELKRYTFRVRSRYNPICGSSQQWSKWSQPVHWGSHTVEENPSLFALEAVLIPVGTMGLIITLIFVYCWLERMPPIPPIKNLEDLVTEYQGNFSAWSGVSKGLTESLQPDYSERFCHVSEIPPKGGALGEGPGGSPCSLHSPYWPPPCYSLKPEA

- EC50 CD8 cells (pSTAT5) [1]: 4.1 nM
- EC50 NK cells (pSTAT5) [1]: 1.4 nM
- EC50 Treg cells (pSTAT5) [1]: < 16 pM
- EC50 pSTAT5 on CD8 cells [1]: 11.9 nM
- EC50 pSTAT5 on NK cells [1]: 2.51 nM
- EC50 pSTAT5 on Treg cells [1]: < 20 pM
- Kd [2]: 0.42 nM
Substance: Proleukin (ligand)
